# Results reported in patent US20250064976A1 (BROAD INSTITUTE, published 2025).
# B1: PNMA2(340)-CCMV(30), engineered PNMA2 (other)
# chain: MALALLEDWCRIMSVDEQKSLMVTGIPADFEEAEIQEVLQETLKSLGRYRLLGKIFRKQENANAVLLELLEDTDVSAIPSEVQGKGGVWKVIFKTPNQDTEFLERLNLFLEKEGQTVSGMFRALGQEGVSPATVPCISPELLAHLLGQAMAHAPQPLLPMRYRKLRVFSGSAVPAPEEESFEVWLEQATEIVKEWPVTEAEKKRWLAESLRGPALDLMHIVQADNPSISVEECLEAFKQVFGSLESRRTAQVRYLKTYQEEGEKVSAYVLRLETLLRRAVEKRAIPRRIADQVRLEQVMAGATLNQMLWCRLRELKDQGPPPSFLELMKVIREEEEEEASMSTVGTGKLTRAQRRAAARKNKRNTRVVQP
# notes: Written as the monomer; The disordered C-terminal region of PNMA2 is replaced by the N-terminal 30 residues of CCMV; It was purified from E. coli and forms capsids like wild-type PNMA2; also called ePNMA2; PNMA2(1-340)-CCMV
# B2: human paraneoplastic antigen Ma2 (PNMA2), recombinant, purified from E. coli (other)
# chain: ALALLEDWCRIMSVDEQKSLMVTGIPADFEEAEIQEVLQETLKSLGRYRLLGKIFRKQENANAVLLELLEDTDVSAIPSEVQGKGGVWKVIFKTPNQDTEFLERLNLFLEKEGQTVSGMFRALGQEGVSPATVPCISPELLAHLLGQAMAHAPQPLLPMRYRKLRVFSGSAVPAPEEESFEVWLEQATEIVKEWPVTEAEKKRWLAESLRGPALDLMHIVQADNPSISVEECLEAFKQVFGSLESRRTAQVRYLKTYQEEGEKVSAYVLRLETLLRRAVEKRAIPRRIADQVRLEQVMAGATLNQMLWCRLRELKDQGPPPSFLELMKVIREEEEEEASFENESIEEPEERDGYGRWNHEGDD
# notes: Written as the monomer; Only residues 158-340 were resolved by cryo-EM; also called PNMA2 monomer; wild-type PNMA2
# B3: HA-tagged PNMA2 overexpressed in HEK293FT cells (other)
# chain: B2 chain
# notes: also called HA-PNMA2; PNMA2-HA; not shown: HA tag at the N-terminus
# How the values were obtained:
# [1] = biological target: the molecule itself; test: TEM of protein purified from E. coli
# [2] = biological target: the molecule itself; test: capsid formation (homo-oligomer)
# [3] = biological target: the molecule itself; test: TEM of the HA-immunoprecipitated VLP fraction from HEK293FT cells
# Description: Successful isolation was confirmed by Coommassie staining and protein capsids were imaged using TEM as described previously.
protein,measurement,setting,value
B1,binding result,[1],binds
B2,binding result,[2],binds
B3,binding result,[3],binds
